# Source: patent US20250207140 (published 2025)
# Molecular target: SARS-CoV-2 spike protein (original strain) (SARS-CoV-2, UniProt P0DTC2 P0DTC2:14-1273)
# Assay: flow
binder,measurement,value
"SEQ ID NO: 14 aptamer (72 nt truncation of SEQ ID NO: 1) (ssRNA, 2'-F pyrimidines) RNA: GGGAGAGCGGAAGCGUGCUGGGCCCCUUUGACCAUAGGAGGCAAGUCUUAUGUUCAAACUGGUCCAUAACCC",Kd,20.7 nM
